Results on 1 molecule are retold here after paper PMC6554336, “C3-Glomerulopathy Autoantibodies Mediate Distinct Effects on Complement C3- and C5-Convertases” (Frontiers in Immunology, 2019).

This experiment has as its target T1, C3b (UniProt P01024 23-667; P01024 749-1663).
T1 construct: Coated on the microtiter plate at 5 ug/ml; source: bought: CompTech
In words: ELISA; C3-convertase assembled on coated C3b in the presence of patient IgGs for 45 min, then Factor H (20 ug/ml) added, 37°C; convertase-bound Bb detected at 15, 30 or 45 min with Factor B polyclonal antiserum, OD 450 nm. The note with it: both partners purified. (In general: An ELISA detects its analyte on a solid surface through an enzyme-linked reagent.)

T1 sequence (P01024 23-667, chain 1 of 2): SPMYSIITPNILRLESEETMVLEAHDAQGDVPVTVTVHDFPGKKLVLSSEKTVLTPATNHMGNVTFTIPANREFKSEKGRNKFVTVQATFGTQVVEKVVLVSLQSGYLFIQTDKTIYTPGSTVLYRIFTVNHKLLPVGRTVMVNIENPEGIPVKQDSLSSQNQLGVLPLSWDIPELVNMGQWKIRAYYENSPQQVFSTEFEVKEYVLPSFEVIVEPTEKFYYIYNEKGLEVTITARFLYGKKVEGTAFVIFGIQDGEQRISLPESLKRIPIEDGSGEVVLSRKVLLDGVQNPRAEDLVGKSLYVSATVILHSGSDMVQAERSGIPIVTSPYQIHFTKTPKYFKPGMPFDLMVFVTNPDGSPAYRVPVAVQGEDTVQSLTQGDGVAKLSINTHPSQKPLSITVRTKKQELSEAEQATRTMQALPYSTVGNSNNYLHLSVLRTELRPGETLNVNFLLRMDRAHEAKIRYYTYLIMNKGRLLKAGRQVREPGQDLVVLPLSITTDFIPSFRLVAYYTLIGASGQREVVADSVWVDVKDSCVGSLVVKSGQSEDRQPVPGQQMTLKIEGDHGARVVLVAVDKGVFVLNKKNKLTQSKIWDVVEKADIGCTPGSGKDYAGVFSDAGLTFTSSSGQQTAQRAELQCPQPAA
T1 sequence (P01024 749-1663, chain 2 of 2): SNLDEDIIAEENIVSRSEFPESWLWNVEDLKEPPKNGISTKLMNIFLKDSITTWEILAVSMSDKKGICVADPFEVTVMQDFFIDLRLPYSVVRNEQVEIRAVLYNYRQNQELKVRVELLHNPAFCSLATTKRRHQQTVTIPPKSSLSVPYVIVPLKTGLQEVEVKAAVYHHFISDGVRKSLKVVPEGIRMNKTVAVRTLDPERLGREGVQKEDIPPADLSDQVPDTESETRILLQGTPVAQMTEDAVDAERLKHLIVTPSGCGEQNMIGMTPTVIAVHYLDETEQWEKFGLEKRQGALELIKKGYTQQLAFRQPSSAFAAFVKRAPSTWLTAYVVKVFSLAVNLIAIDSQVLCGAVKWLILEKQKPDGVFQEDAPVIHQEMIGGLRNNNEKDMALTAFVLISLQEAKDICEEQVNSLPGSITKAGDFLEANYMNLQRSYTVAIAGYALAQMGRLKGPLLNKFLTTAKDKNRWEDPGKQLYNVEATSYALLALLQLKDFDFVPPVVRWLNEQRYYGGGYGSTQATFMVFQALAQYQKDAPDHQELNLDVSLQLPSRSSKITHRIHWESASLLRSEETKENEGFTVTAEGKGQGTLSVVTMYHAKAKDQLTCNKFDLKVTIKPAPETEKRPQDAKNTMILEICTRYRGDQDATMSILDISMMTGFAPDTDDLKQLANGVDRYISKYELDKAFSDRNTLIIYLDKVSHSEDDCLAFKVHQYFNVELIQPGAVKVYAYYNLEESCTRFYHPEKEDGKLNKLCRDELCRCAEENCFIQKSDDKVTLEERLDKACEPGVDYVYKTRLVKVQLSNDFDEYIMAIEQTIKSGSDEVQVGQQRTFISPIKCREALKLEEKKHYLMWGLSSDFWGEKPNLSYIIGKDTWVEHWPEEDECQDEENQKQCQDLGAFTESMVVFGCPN

B1: Factor H (natural protein, UniProt P08603 19-1231, looked up)
chain: EDCNELPPRRNTEILTGSWSDQTYPEGTQAIYKCRPGYRSLGNVIMVCRKGEWVALNPLRKCQKRPCGHPGDTPFGTFTLTGGNVFEYGVKAVYTCNEGYQLLGEINYRECDTDGWTNDIPICEVVKCLPVTAPENGKIVSSAMEPDREYHFGQAVRFVCNSGYKIEGDEEMHCSDDGFWSKEKPKCVEISCKSPDVINGSPISQKIIYKENERFQYKCNMGYEYSERGDAVCTESGWRPLPSCEEKSCDNPYIPNGDYSPLRIKHRTGDEITYQCRNGFYPATRGNTAKCTSTGWIPAPRCTLKPCDYPDIKHGGLYHENMRRPYFPVAVGKYYSYYCDEHFETPSGSYWDHIHCTQDGWSPAVPCLRKCYFPYLENGYNQNYGRKFVQGKSIDVACHPGYALPKAQTTVTCMENGWSPTPRCIRVKTCSKSSIDIENGFISESQYTYALKEKAKYQCKLGYVTADGETSGSITCGKDGWSAQPTCIKSCDIPVFMNARTKNDFTWFKLNDTLDYECHDGYESNTGSTTGSIVCGYNGWSDLPICYERECELPKIDVHLVPDRKKDQYKVGEVLKFSCKPGFTIVGPNSVQCYHFGLSPDLPICKEQVQSCGPPPELLNGNVKEKTKEEYGHSEVVEYYCNPRFLMKGPNKIQCVDGEWTTLPVCIVEESTCGDIPELEHGWAQLSSPPYYYGDSVEFNCSESFTMIGHRSITCIHGVWTQLPQCVAIDKLKKCKSSNLIILEEHLKNKKEFDHNSNIRYRCRGKEGWIHTVCINGRWDPEVNCSMAQIQLCPPPPQIPNSHNMTTTLNYRDGEKVSVLCQENYLIQEGEEITCKDGRWQSIPLCVEKIPCSQPPQIEHGTINSSRSSQESYAHGTKLSYTCEGGFRISEENETTCYMGKWSSPPQCEGLPCKSPPEISHGVVAHMSDSYQYGEEVTYKCFEGFGIDGPAIAKCLGEKWSHPPSCIKTDCLSLPSFENAIPMGEKKDVYKAGEQVTYTCATYYKMDGASNVTCINSRWTGRPTCRDTSCVNPPTVQNAYIVSRQMSKYPSGERVRYQCRSPYEMFGDEEVMCLNGNWTEPPQCKDSTGKCGPPPPIDNGDITSFPLSVYAPASSVEYQCQNLYQLEGNKRITCRNGQWSEPPKCLHPCVISREIMENYNIALRWTAKQKLYSRTGESVEFVCKRGYRLSSRSHTLRTTCWDGKLEYPTCAKR
notes: complement Factor H; Used at 20 ug/ml; source: bought: CompTech
As to B1, the binding result was “binds”.
